In patent publication US20030191048A1 one finds SCF dose giving maximal proliferation (XTT-based assay), mock- and KSHV-infected DMVEC, proliferation (XTT-based assay), increase over basal proliferation, KSHV-infected DMVEC and proliferation (XTT-based assay), increase over basal proliferation, mock-infected DMVEC data, which are given here for one substance.

For the test, the target named is c-Kit (CD 117) receptor tyrosine kinase on DMVEC (human) (UniProt P10721). The test can be described thus: cell-based or functional assay.
Chain of c-Kit (CD 117) receptor tyrosine kinase on DMVEC (human) (P10721 26-976): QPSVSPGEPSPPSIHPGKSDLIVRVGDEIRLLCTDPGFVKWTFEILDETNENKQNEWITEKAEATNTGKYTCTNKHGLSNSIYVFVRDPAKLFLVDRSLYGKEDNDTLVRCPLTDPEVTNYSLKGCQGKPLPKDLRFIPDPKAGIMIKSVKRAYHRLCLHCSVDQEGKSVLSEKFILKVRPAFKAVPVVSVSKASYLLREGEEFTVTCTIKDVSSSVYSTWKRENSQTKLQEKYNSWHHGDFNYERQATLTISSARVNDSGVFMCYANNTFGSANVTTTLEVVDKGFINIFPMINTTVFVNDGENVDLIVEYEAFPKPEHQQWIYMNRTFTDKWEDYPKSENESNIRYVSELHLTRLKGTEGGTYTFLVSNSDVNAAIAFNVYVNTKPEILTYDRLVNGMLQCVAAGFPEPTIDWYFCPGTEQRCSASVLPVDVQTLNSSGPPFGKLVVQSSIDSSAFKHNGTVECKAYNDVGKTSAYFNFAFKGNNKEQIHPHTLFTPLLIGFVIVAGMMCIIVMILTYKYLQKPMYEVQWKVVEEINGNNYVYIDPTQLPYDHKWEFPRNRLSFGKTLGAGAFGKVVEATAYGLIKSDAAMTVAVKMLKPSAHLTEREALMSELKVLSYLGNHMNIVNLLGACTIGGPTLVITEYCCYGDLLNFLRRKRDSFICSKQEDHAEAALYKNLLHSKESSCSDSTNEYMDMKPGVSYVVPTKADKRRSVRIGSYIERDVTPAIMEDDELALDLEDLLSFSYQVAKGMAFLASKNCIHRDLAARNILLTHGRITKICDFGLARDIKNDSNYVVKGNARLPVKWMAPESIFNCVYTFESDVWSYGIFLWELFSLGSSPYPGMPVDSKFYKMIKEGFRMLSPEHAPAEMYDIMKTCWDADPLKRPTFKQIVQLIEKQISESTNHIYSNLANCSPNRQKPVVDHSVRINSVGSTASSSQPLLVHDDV

Consider “recombinant stem cell factor (SCF) (from UniProt P21583 26-189) (ligand)”, for which the SCF dose giving maximal proliferation (XTT-based assay), mock- and KSHV-infected DMVEC fell in the range of 50 to 100 ng/mL; the proliferation (XTT-based assay), increase over basal proliferation, KSHV-infected DMVEC was < 85%; the proliferation (XTT-based assay), increase over basal proliferation, mock-infected DMVEC was < 40%.
